In the test the target is Interleukin-1 receptor 1 on human umbilical vein endothelial cells (human (endogenous in HUVEC)) (UniProt P14778).
Chain of UniProt P14778 (P14778 18-569): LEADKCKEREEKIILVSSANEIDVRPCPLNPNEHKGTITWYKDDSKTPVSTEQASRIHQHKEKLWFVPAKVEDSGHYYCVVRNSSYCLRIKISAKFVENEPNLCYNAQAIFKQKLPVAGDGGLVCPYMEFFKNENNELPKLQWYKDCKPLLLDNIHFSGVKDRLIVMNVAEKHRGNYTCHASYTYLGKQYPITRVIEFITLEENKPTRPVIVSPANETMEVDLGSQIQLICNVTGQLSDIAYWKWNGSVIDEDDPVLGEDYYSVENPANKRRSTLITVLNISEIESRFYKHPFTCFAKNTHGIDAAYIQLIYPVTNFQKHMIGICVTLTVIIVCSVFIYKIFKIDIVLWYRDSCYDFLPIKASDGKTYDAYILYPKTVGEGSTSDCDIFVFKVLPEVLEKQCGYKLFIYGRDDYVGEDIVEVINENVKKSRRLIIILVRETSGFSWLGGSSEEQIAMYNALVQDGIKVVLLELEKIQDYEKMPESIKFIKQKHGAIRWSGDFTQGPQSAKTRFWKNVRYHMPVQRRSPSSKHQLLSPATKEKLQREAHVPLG

As for “cell-surface Interleukin-1α on human primary monocytes (from UniProt P01583 113-271) (ligand)”, the percent VCAM1-positive HUVECs (flow cytometry) after 4h with unstimulated monocytes (% VCAM pos. cells) turned out to be 2.5; the percent VCAM1-positive HUVECs (flow cytometry) after 4h with upLPS-stimulated monocytes (% VCAM pos. cells) worked out at 25.9; the percent VCAM1-positive HUVECs (flow cytometry) after 4h with upLPS-stimulated monocytes, HUVECs pre-treated 1h with neutralizing IL1R1 antibody (10 µg/ml, AB-269-NA, R&D Systems) (% VCAM1 pos. cells) came out at 18.6; the percent adhesion of calcein-labeled, LPS-pre-stimulated monocytes to HUVECs (remaining fluorescence after washing) is 6.7%. Further, the percent adhesion of calcein-labeled, non-stimulated monocytes to HUVECs (remaining fluorescence after washing) was 3.5%.
